Assay results from article PMC9812381 (Science Advances, 2023).

Molecular target: T1, Cullin-5 (CUL5), residues 12-780 (human, UniProt Q93034 12-780)
T1 construct: source: E. coli BL21 (DE3), coexpressed with RBX2, purified (Ni-NTA, SEC); not shown: GB1, N-terminal, cleaved
T1 sequence: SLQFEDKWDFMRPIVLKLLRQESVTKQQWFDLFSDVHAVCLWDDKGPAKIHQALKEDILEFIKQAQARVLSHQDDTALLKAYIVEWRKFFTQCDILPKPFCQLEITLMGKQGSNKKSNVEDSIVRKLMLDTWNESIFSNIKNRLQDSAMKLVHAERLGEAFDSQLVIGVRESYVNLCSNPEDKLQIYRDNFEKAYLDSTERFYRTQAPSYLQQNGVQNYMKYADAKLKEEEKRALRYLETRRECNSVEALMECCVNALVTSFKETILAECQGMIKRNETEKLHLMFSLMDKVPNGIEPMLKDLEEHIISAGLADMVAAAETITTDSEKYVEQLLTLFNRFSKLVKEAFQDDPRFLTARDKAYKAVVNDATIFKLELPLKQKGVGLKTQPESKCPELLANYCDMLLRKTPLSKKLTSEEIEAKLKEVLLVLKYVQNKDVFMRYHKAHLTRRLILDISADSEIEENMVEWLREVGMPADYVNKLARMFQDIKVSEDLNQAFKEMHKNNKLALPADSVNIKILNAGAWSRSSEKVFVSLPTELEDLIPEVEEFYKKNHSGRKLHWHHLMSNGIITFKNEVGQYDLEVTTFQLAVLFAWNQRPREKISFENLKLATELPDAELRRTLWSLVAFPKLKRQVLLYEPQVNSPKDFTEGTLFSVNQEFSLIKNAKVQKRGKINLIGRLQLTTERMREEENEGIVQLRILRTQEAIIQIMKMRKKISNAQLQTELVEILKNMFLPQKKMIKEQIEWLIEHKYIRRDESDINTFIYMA
Assay: cryo-EM structure
Details: both partners purified

B1: zinc finger RING-box protein 2 (RBX2), residues 1-113 (natural protein)
chain: MADVEDGEETCALASHSGSSGSKSGGDKMFSLKKWNAVAMWSWDVECDTCAICRVQVMDACLRCQAENKQEDCVVVWGECNHSFHNCCMSLWVKQNNRCPLCQQDWVVQRIGK
notes: source: E. coli BL21 (DE3), coexpressed with CUL5, purified (Ni-NTA, SEC)
  binding result: binds
